From US20260028391A1
Changes are numbered by the printed parent chain. In names and notes the source's numbering stands.

B1: RSD5-FR-GL-rIgG1 (antibody, V domains shown)
VH: QVQLVESGGGVVQPGRSLRLSCAASGFAFNNFAMHWVRQAPGKGLEWVAVVSYDGTSPYYADSVKGRFTISRDNSKNTLYLQMNSLRAEDTAVYYCARGLGSGSYSWIGYFYAMDVWGQGTTVTVSS
VL: QSALTQPASVSGSPGQSITISCTGTSSDVGGYVYVSWYQQHPGKAPKLMIYDVSNRPSGVSNRFSGSKSGNTASLTISGLQAEDEADYYCISYTDRNTVVFGGGTKLTVL
B2: MPK155 (antibody, V domains shown)
VH: EVQLVESGGGLVKPGGSLRLSCEASGISLSGYYMIWIRQAPGKGLEWISSISSSSNYIDYADSVRGRFTISRHNGQNTLYLQMNSLRVEDTAVYFCATEQTPSPGPFDLWGQGILVTVSS
VL: QSVLTQPPSVSGAPGQRVTIFCTGTSSNLGAGYDVHWYQQFPGTSPKLLIYRYTNRPSGVPDRFSGSKSGSSASLAIAGLQAEDEADYYCQSYDRSVSGWVFGGGTKLTVL
B3: MPK157 (antibody, V domains shown)
VH: EVQLVESGGGLVKPGGSLRLSCSASGFTLSGYNMNWVRQAPGKGLEWISYISASSSYINYADSVKGRFTISRDNGRSSLYLQMNSLRAEDTAVYFCTTQAELPGWFDPWGQGTLVTVSS
VL: QSVLTQPPSMSGAPGQRVTISCTGSSSNIGAGYDVNWYRQLPGTAPQLLIYRNTNRPSGVPDRFSGSNSGTSASLAITGLQADDEAHYYCQSYDRSLSGWVFGGGTKLTVL
B4: MPK177 (antibody, V domains shown)
VH: EVQLVQSGAEVKKPGESLKISCQVSGYSFMNYWVGWVRQMPGKGLEWMGIIYPFDSDTIYSPSFQGHVTISADTSITTAYLHWSSLKASDTATYYCARFTFGIAVVADGLSGDGEAFDIWGQGTVVTVSS
VL: DIVMTQTPATLSVSPGERATLSCRASQSVAGKLAWYQQRPGQTPRLLIYGASTRATGVPARFSGSGSETEFTLTISSLQSEDFAVYYCQQYSSWPHAFGQGTRLDIK
B5: MPK195 (antibody, V domains shown)
VH: EVQLVQSGAAVKKPGESLKISCRGSGYSFINYWIGWVRQMPGKGLEWMGVIYPFDSDTQYSPSFQGHVTISADKSINTAYLQWDSLKAADTAIYYCARFTFGIALSTADVYGEGQAFDIWGPGTMVTVSS
VL: B4 VL with D1E, M4L, T7S, L33I, T43A, S93N, H96Q, Q100P, I106M
B6: MPK127 (antibody, V domains shown)
VH: QVQLVISGGGLVKPGGSLRLSCAASGFRIDSFSLNWVRQAPGKGLEWLASVSASSSYIDYRDSVAGRFTISRDNAQNSLYLQMDTLRAEDTAVYYCARTNGYETGSFDVWGQGTLVTVAS
VL: QSVLTQPPSVSGAPGQRVTISCTGSSSNIGAGYDVHWYQQLPGKAPKLLINANNNRPSGVPDRFSGSNSGTSASLAITGLQAEDEADYYCQSYDKTLSGYVFGLGTTVTVL
B7: MPK171-v1 (antibody, V domains shown)
VH: QVQLVQSGAEVKKPGESLKISCKGSGYSFINYWIGWVRQMPGKGLEWMGIIYPFDSDTKYSPSFQGHVTISADKSINTAYVQWSSLKASDTAMYYCARFTFGIAVVTDDVSGEGHAFDIWGQGTMVTVSS
VL: QSVLTQPPSVSGAPGQRVTISCAGSSSNIGAGFDVHWYQQVPGTAPKLLIYNTDNRASGVPDRFSASKSGTSASLAITGLQAEDEADYYCQSYDNSLSGVFGGGTKLTVL
B8: MPK191 (antibody, V domains shown)
VH: B7 VH with Q1E, S85G, T107A, D108G, S111T, I119V
VL: B4 VL with D1E, T7S, E17D, K32N, T56S, S92D, S93N
B9: MPK167 (antibody, V domains shown)
VH: B7 VH with Q1E, A9P, G24A, K59Q, T107A, D108G
VL: B4 VL with D1E, T5M, T7S, K32N, R39S, T43A, Y87F, S93N
B10: MPK152 (antibody, V domains shown)
VH: EVQLVESGGGLVKPGGSLRLSCAASGLTISGYYMIWIRQAPGKGLEWISYISGSSSYTNYADSVKGRFTISRDNGQNTLFLQMDSLRVEDTAVYFCATEETPSPGPFGLWGQGTLVTVSS
VL: QSVVTQPPSVSGAPGQRVTISCTGTSSNIGAGYDVHWYQQFPGTSPKLLIFRNTNRPSGVPDRFSGSTSGSSASLAITGLQTEDEADYYCQSYDRSLDGWVFGGGTELTVL
B11: MPK153 (antibody, V domains shown)
VH: EVHLVESGGGLVKPGGSLRLSCAASGFTFTGYFMIWIRQAPGKGLEWISYISSSSNYINYADSVKGRFTISRDNGQNTLYLQMNSLRPDDTAVYYCATEQVPSPGPFDLWGQGTLVTVSS
VL: B10 VL with V4L, T19I, T44A, N55D, T68K, T78A, T82A, E107K, L108V
B12: MPK132-v1 (antibody, V domains shown)
VH: B2 VH with R65K, D108E
VL: B2 VL with L4V, L29I, A31T, Y53N
B13: MPK129 (antibody, V domains shown)
VH: B2 VH with I27F, S53G, S55G, R65K, H73D, Q76H, F95Y, L109H, I114T
VL: B2 VL with S2T, L4V, F21S, L29I, A31T, Y53N
B14: MPK169-v2 (antibody, V domains shown)
VH: EVQLVQSGAEVKKPGESLTISCQTSGYSFINYWIGWVRQMPGKGLEWMGVIYPFDSDTEYSPSFRGHVTISADKSINTAYLQWNSLGASDTAMYYCARFTFGIALVSGDVNGEGHAFDVWGRGTLVTVSS
VL: EIVLTQSPPTLSVSPGQRATLSCRASQSVADKLAWYQQRPGQAPRLLIYGASSRATGVPARFSGSGSETEFTLTITSLQSEDFALYYCHQYNNWPHAFGQGTRLVIK
B15: MPK182 (antibody, V domains shown)
VH: EVQLVESGGGLVKPGGSLRLSCTASLSTFSDYYMTWIRQAPGKGLEWLGYISGSQSQTNLADSVKGRFTISRDNAKKSLYLQMNSLRVEDTATYFCARVHLWFGDLNALDLWGQGTKVTVSS
VL: B7 VL with S74F
B16: MPH12 VH-FRGL / MPH12 VL-FRGL-D25E (antibody, V domains shown)
VH: QVQLVESGGGLVKPGGSLRLSCAASGFTFSGFYMKWIRQAPGKGLEWVSSISASGSYTNYADSVEGRFTISRDNAKNSLYLQMNSLRAEDTAVYYCARGDSYCGASACHGEFFHKWGQGTLVTVSS
VL: QSVLTQPPSVSGAPGQRVTISCTGSESNIGADFDVHWYQQLPGTAPKLLIYGNINRPSGVPDRFSGSKSGTSASLAITGLQAEDEADYYCQSYDRSLHYVFGTGTKVTVL
B17: MPH12-v17 (VH-FRGL-D62E/VL-D25S) (antibody, V domains shown)
VH: B16 VH with D62E
VL: B16 VL with E26S, K68R, S74F, G79R, T103A
B18: MPH12-v29 (VH-FRGL-D62E/VL-S26A) (antibody, V domains shown)
VH: B16 VH with D62E
VL: B16 VL with E26D, S27A, K68R, S74F, G79R, T103A
B19: MPH12 VH / MPH12 VL-FRGL-D25E (antibody, V domains shown)
VH: B16 VH with A23V, I70V, Y80F, Q82L, N84S
VL: B16 VL
B20: MPH12 VH-FRGL-S63A / MPH12 VL-FRGL-D25E (antibody, V domains shown)
VH: B16 VH with S63A
VL: B16 VL
B21: MPH12-v34 (VH-FRGL-S63A/VL-FRGL-D25S) (antibody, V domains shown)
VH: B16 VH with S63A
VL: B16 VL with E26S
B22: MPH12-v35 (VH-FRGL-D62E/VL-FRGL-D25S) (antibody, V domains shown)
VH: B16 VH with D62E
VL: B16 VL with E26S

Each binder was assayed against fusion glycoprotein (F) of the MPV used in the neutralization of Table 34 (metapneumovirus) (assay: cell-based or functional assay).

Binder	IC50 (ng/mL) in neutralization against MPV [ng/mL]
B1	> 2000

Each binder was assayed against fusion glycoprotein of the RSV used in the neutralization assay of Example 1 (respiratory syncytial virus (strain not stated)) (assay: cell-based or functional assay).

Binder	RSV Neutralization - IC50 [ng/mL]
B2	26.5
B3	24.1
B4	1
B5	1.1
B6	78.7
B7	4.3
B8	1.2
B9	1
B10	30.8
B11	29.6
B12	18
B13	14.9
B1	5.41

What follows are binders tested against RSV fusion glycoprotein (RSV-F) of the RSV used in the neutralization of Table 33 (respiratory syncytial virus, strain not stated) (assay: cell-based or functional assay).

Binder	IC50 (ng/mL) in neutralization against RSV [ng/mL]
B1	1.2

The binders below were run against fusion glycoprotein of the MPV D280 used in the neutralization assay of Example 3 (metapneumovirus (strain not stated)) (assay: cell-based or functional assay).

Binder	MPV D280 Neutralization - IC50 [ng/mL]
B2	14.1
B3	7.9
B6	24.3
B10	15.2
B11	19.9
B12	10.1
B13	8.1

These binders were tested against MPV fusion glycoprotein without the D280N mutation (MPV-F D280) (metapneumovirus) (assay: SPR; F protein loaded on streptavidin sensors, mAb in solution).

Binder	Kd [pM]
B2	1
B3	1
B6	1
B10	1
B11	1
B12	1
B13	1

What follows are binders tested against MPV fusion glycoprotein with the D280N mutation (MPV-F N280) (metapneumovirus) in the same assay as above.

Binder	Kd [nM]
B2	2.6
B3	1.2
B6	0.001
B10	0.069
B11	5.5
B12	4.3
B13	1.9

What follows are binders tested against RSV fusion glycoprotein (RSV-F) (respiratory syncytial virus (strain not stated)) (assay: SPR; sensors loaded with RSV-F, mAb in solution (Experiment 2)).

Binder	Kd [nM]
B4	0.001
B5	0.001
B14	0.62
B7	1.2
B8	0.029
B9	0.011
B15	2.8

The binders below were run against DS-Cav1 RSV F (respiratory syncytial virus) (assay: ELISA on DS-Cav1 RSV F).

Binder	EC50 [µg/mL]
B16	0.0472
B17	0.0251
B18	0.0425
B19	0.0306
B20	0.0347

What follows are binders tested against MPV fusion glycoprotein without the D280N mutation (MPV-F D280) (metapneumovirus) (assay: biolayer interferometry (BLI), rIgG1 with M428L/N434S).

Binder	Kd [nM]
B21	0.039
B22	0.028
B17	0.028
B18	0.027

These binders were tested against MPV fusion glycoprotein with the D280N mutation (MPV-F N280) (metapneumovirus) in the same assay as above.

Binder	Kd [nM]
B21	0.82
B22	0.78
B17	0.55
B18	0.64
